Experimental data as given in patent publication US20230227548A1 (published 2023).
Changes are numbered by the printed parent chain. Names may count otherwise. Values belong to the binder of their own block, whether it stands above or below them.

Legend:
human GPRC5D [1] = molecular target: T1, human GPRC5D (human, UniProt Q9NZD1 1-345); experiment: FACS, human GPRC5D cells
T1 construct: on transfected HEK293 or RBL cells, or endogenous on MM1R, H929, OPM2, LP-1, JIM3 and patient plasma cells; also called G-protein coupled receptor family C group 5 member D; hGPRC5D

human GPRC5D [2] = molecular target: T1, human GPRC5D; experiment: cell-based or functional assay
human GPRC5D [3] = molecular target: T1, human GPRC5D; experiment: FACS, MM patient MM303BM bone marrow MNCs (plasma cells)
human GPRC5D [4] = molecular target: T1, human GPRC5D; experiment: cell-based or functional assay; remark: listed apart in the source
human GPRC5D [5] = molecular target: T1, human GPRC5D; experiment: cell-based or functional assay; remark: listed apart in the source
human GPRC5D [6] = molecular target: T1, human GPRC5D; experiment: FACS, MM patient MM305BM bone marrow MNCs (plasma cells)
cyno GPRC5D [7] = molecular target: T2, cyno GPRC5D (cyno, UniProt Q9NZD1 1-343 (human entry)); experiment: cell-based or functional assay
T2 chain: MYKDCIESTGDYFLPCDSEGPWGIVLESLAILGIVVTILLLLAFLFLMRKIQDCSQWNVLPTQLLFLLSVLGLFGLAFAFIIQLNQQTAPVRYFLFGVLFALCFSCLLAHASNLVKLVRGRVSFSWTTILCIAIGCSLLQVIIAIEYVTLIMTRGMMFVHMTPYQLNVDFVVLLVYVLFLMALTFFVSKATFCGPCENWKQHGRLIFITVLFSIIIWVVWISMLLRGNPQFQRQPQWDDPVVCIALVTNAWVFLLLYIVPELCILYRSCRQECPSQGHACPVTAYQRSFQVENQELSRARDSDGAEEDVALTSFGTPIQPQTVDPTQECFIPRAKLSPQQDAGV

cyno GPRC5D [8] = molecular target: T2, cyno GPRC5D; experiment: cell-based or functional assay
cyno GPRC5D [9] = molecular target: T2, cyno GPRC5D; experiment: FACS, cyno GPRC5D cells, 1 ug/ml

T1 sequence (Q9NZD1 whole entry): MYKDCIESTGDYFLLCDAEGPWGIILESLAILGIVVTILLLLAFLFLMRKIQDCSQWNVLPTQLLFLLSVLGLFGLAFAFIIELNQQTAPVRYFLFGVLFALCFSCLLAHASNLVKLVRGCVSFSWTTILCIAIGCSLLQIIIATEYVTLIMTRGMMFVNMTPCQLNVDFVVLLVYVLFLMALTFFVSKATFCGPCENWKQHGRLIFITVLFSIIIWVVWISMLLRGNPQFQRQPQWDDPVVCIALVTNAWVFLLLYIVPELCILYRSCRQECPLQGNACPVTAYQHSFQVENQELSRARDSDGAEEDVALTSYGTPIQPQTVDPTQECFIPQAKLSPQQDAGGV

- binding result (human GPRC5D [1]): binds
B1: GC5B540 (antibody, V domains shown)
VH: QVTLKESGPVLVKPTETLTLTCTVSGFSLTSYNVHWIRQPPGKALEWLAVIWAGGSTNYNSALMSRLTISKDTSKSQVVLTMTNMRAEDTATYYCARDGIRLRFAYWGQGTLVTVSS
VL: EIVMTQSPATLSVSPGERATLSCKASQNVATHVGWYQQKPGQAPRLLIYSASYRYSGIPARFSGSGSGTEFTLTISSLQSEDFAVYYCQQYNRYPYTFGQGTKLEIK
notes: HFA of GC5B396: GC5H240 + GC5L58; IgG4

- EC50 (human GPRC5D [3]): 16.1 nM
- EC50 (human GPRC5D [6]): 70.4 nM
B2: GCDB32 (bispecific antibody, IgG4, V domains shown)
VH 1: EVQLVESGGGLVQPGGSLRLSCAASGFTFNTYAMNWVRQAPGKGLEWVARIRSKYNNYATYYAASVKGRFTISRDDSKNSLYLQMNSLKTEDTAVYYCARHGNFGNSYVSWFAYWGQGTLVTVSS
VL 1: QTVVTQEPSLTVSPGGTVTLTCRSSTGAVTTSNYANWVQQKPGQAPRGLIGGTNKRAPGTPARFSGSLLGGKAALTLSGVQPEDEAEYYCALWYSNLWVFGGGTKLTVL
VH 2: not shown
VL 2: not shown
notes: IgG4-PAA by Fab arm exchange; first VH/VL = CD3B219 arm (IgG4 S228P, L234A, L235A, F405L, R409K); also called GC5B81 x CD3B219
- T-cell mediated cytotoxicity EC50, H929 cells (human GPRC5D [2]): 0.45 nM
- T-cell mediated cytotoxicity EC50, LP-1 (human GPRC5D [2]): 1.02 nM
- T-cell mediated cytotoxicity EC50, MM1R (human GPRC5D [2]): 0.04 nM
- T-cell mediated cytotoxicity EC50, OPM2 (human GPRC5D [2]): 0.98 nM
- T-cell redirection cytotoxicity EC50, human GPRC5D HEK cells (human GPRC5D [4]): 0.04 nM
- T-cell mediated cytotoxicity EC50, H929 (n = 5) (human GPRC5D [5]): 0.39 nM
- T-cell mediated cytotoxicity EC50, MM1R (n = 3) (human GPRC5D [5]): 0.12 nM

B3: GCDB45 (bispecific antibody, V domains shown)
VH 1: B2 VH 1
VL 1: B2 VL 1
VH 2: EVQLVQSGAEVKKPGESLKISCKGSGYSFTSYWIGWVRQMPGKGLEWMGIIYPGDSDTRYSPSFQGQVTISADKSISTAYLQWSSLKASDTAMYYCARIGFYGRSFRIFDYWGQGTLVTVSS
VL 2: EIVLTQSPATLSLSPGERATLSCRASQSVSSYLAWYQQKPGQAPRLLIYDASNRATGIPARFSGSGSGTDFTLTISSLEPEDFAVYYCQQRSNWPLTFGQGTKVEIK
- T cell mediated target cell killing, Cyno GPRC5D EC50 (cyno GPRC5D [7]): 2.82 nM
- T-cell mediated cytotoxicity EC50, H929 (n = 5) (human GPRC5D [5]): 2.25 nM
- T-cell mediated cytotoxicity EC50, MM1R (n = 3) (human GPRC5D [5]): 0.91 nM

- EC50 (human GPRC5D [3]): 3.98 nM
- EC50 (human GPRC5D [6]): 10.2 nM
B4: GCDB53 (bispecific antibody, IgG4, V domains shown)
VH 1: B2 VH 1
VL 1: B2 VL 1
VH 2: not shown
VL 2: not shown
notes: IgG4-PAA; first VH/VL = CD3B219 arm (adds F405L, R409K), second = GC5B465 arm; also called GC5B465 x CD3B219
- T-cell mediated cytotoxicity EC50, H929 cells (human GPRC5D [2]): 0.69 nM
- T-cell mediated cytotoxicity EC50, LP-1 (human GPRC5D [2]): 1.58 nM
- T-cell mediated cytotoxicity EC50, MM1R (human GPRC5D [2]): 0.28 nM
- T-cell mediated cytotoxicity EC50, OPM2 (human GPRC5D [2]): 2.83 nM
- T-cell redirection cytotoxicity EC50, cyno GPRC5D HEK cells (cyno GPRC5D [8]): 0.36 nM
- T-cell redirection cytotoxicity EC50, human GPRC5D HEK cells (human GPRC5D [4]): 0.08 nM

- EC50 (human GPRC5D [3]): 5.53 nM
- EC50 (human GPRC5D [6]): 6.93 nM
B5: GCDB61 (bispecific antibody, IgG4, V domains shown)
VH 1: B2 VH 1
VL 1: B2 VL 1
VH 2: EVQLVQSGAEVKKPGESLKISCKGSGYSFTSYFIGWVRQMPGKGLEWMGIIYPGKSDTRYSPSFQGQVTISADKSISTAYLQWSSLKASDTAMYYCARVYSFGGRHKALFDYWGQGTLVTVSS
VL 2: B3 VL 2
notes: IgG4-PAA; first VH/VL = CD3B219 arm (adds F405L, R409K), second = GC5B483 arm; also called GC5B483 x CD3B219
- T-cell mediated cytotoxicity EC50, H929 cells (human GPRC5D [2]): 0.39 nM
- T-cell mediated cytotoxicity EC50, LP-1 (human GPRC5D [2]): 1.67 nM
- T-cell mediated cytotoxicity EC50, MM1R (human GPRC5D [2]): 0.06 nM
- T-cell mediated cytotoxicity EC50, OPM2 (human GPRC5D [2]): 1.46 nM
- T-cell redirection cytotoxicity EC50, cyno GPRC5D HEK cells (cyno GPRC5D [8]): 1.22 nM
- T-cell redirection cytotoxicity EC50, human GPRC5D HEK cells (human GPRC5D [4]): 0.03 nM

- MFI (cyno GPRC5D [9]): 63300
B6: GC5B252 (antibody, V domains shown)
VH: QVQLVQSGAEVKKPGSSVKVSCKASGGTFSSYGISWVRQAPGQGLEWMGGIIPIFGNINYAQKFQGRVTITADESTSTAYMELSSLRSEDTAVYYCARVSRRFKRFAYYFDYWGQGTLVTVSS
VL: B3 VL 2

- MFI (cyno GPRC5D [9]): 22000
B7: GC5B163 (antibody, V domains shown)
VH: B5 VH 2 with F33W, K55D
VL: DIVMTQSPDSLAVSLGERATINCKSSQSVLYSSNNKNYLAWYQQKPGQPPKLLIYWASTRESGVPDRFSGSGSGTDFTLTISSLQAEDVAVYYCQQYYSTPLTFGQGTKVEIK
